Reference: PMC7176292

What was measured:
[1] = biological target: human μ-opioid receptor (μOR) M153I, with HA signal sequence at the N terminus and LgBiT at the C terminus (modified pfastbac1) (human) (UniProt P35372); assay: split reporter (BiFC, NanoBiT); NanoBiT on Sf9 membranes co-expressing μOR-LgBiT, Gαi1, Gβ1-SmBiT and Gγ2, in PBS pH 7.4; dose-response of DAMGO, 15 min at room temperature, luminescence; normalized to DAMGO
[2] = biological target: human μ-opioid receptor (μOR) M153L, with HA signal sequence at the N terminus and LgBiT at the C terminus (modified pfastbac1) (human) (UniProt P35372); assay: as above
[3] = biological target: human μ-opioid receptor (μOR) M153F, with HA signal sequence at the N terminus and LgBiT at the C terminus (modified pfastbac1) (human) (UniProt P35372); assay: as above
[4] = biological target: human μ-opioid receptor (μOR) M153I, with HA signal sequence at the N terminus and LgBiT at the C terminus (modified pfastbac1) (human) (UniProt P35372); assay: split reporter (BiFC, NanoBiT); NanoBiT on Sf9 membranes co-expressing μOR-LgBiT, Gαi1, Gβ1-SmBiT and Gγ2, in PBS pH 7.4; dose-response of fentanyl, 15 min at room temperature, luminescence; normalized to DAMGO
[5] = biological target: human μ-opioid receptor (μOR) M153A, with HA signal sequence at the N terminus and LgBiT at the C terminus (modified pfastbac1) (human) (UniProt P35372); assay: as above
[6] = biological target: human μ-opioid receptor (μOR) M153L, with HA signal sequence at the N terminus and LgBiT at the C terminus (modified pfastbac1) (human) (UniProt P35372); assay: as above
[7] = biological target: human μ-opioid receptor (μOR) M153F, with HA signal sequence at the N terminus and LgBiT at the C terminus (modified pfastbac1) (human) (UniProt P35372); assay: as above
[8] = biological target: human μ-opioid receptor (μOR) M153V, with HA signal sequence at the N terminus and LgBiT at the C terminus (modified pfastbac1) (human) (UniProt P35372); assay: as above

Sequence of Gi protein complex (Gαi1, Gβ1 with SmBiT at the C terminus, Gγ2) (P63096 whole entry): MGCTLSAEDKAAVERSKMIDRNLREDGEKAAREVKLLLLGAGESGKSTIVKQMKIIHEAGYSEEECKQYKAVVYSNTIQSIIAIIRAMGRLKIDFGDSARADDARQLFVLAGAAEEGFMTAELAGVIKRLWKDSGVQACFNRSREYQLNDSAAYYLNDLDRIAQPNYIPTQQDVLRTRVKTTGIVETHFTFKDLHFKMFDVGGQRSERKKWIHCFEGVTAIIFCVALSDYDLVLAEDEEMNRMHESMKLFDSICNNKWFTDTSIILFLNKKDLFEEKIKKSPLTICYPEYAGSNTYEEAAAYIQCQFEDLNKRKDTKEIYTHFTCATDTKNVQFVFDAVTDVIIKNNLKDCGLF
Sequence of Gi protein complex (Gαi1, Gβ1 with SmBiT at the C terminus, Gγ2) (P62873 whole entry): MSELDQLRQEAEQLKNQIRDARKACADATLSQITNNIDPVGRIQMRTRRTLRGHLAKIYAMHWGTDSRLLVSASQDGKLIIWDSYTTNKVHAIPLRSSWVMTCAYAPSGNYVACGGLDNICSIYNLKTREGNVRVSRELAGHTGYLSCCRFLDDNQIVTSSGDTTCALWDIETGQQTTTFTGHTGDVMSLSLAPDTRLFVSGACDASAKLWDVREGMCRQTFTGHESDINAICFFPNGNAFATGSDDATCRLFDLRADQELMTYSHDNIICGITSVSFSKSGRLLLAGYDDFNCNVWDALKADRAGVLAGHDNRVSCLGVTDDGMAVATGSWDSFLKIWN
Sequence of Gi protein complex (Gαi1, Gβ1 with SmBiT at the C terminus, Gγ2) (P59768 whole entry): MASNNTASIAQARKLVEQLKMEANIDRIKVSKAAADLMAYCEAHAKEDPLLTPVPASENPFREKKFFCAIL

## Gi protein complex (Gαi1, Gβ1 with SmBiT at the C terminus, Gγ2) (from UniProt P63096 1-354; P62873 1-340; P59768 1-71)
[1]
  maximal Gi coupling (normalized to DAMGO): 100%
[2]
  maximal Gi coupling (normalized to DAMGO): 100%
[3]
  maximal Gi coupling (normalized to DAMGO): 100%
[4]
  maximal Gi coupling (normalized to DAMGO): < 55%
[5]
  maximal Gi coupling (normalized to DAMGO): < 55%
[6]
  maximal Gi coupling (normalized to DAMGO): < 55%
[7]
  maximal Gi coupling (normalized to DAMGO): < 55%
[8]
  maximal Gi coupling (normalized to DAMGO): < 55%
